Residue numbers refer to the chain shown, from its start.
B1: M3-11 (X = C) heavy chain with K1 light chain (antibody, V domains shown)
VH: EVQLLESGGGLVQPGGSLRLSCAFSGFTLSTSGMGIGWVRQAPGKGLEWVAHIWWDDDKYYNPSLKSRFTISRDTSKNTVYLQMNSLRAEDTAVYYCARNYYPYDAWFDCWGQGTLVTVS
VL: DIQMTQSPSSLSASVGDRVTITCSASSSINSNHLHWYQQKPGKAPKLLIYRTSILASGVPSRFSGSGSGTSFTLTISSLQPEDFATYYCQQGSNIPFTFGQGTKVEIK
notes: Position counted within VH CDR3; also called M3-11 C
B2: M3-11 (X = E) heavy chain with K1 light chain (antibody, V domains shown)
VH: B1 VH with C110E
VL: B1 VL
notes: Position counted within VH CDR3; also called M3-11 E
B3: M3-11 (X = Q) heavy chain with K1 light chain (antibody, V domains shown)
VH: B1 VH with C110Q
VL: B1 VL
notes: Position counted within VH CDR3; also called M3-11 Q
B4: M3-11 (X = H) heavy chain with K1 light chain (antibody, V domains shown)
VH: B1 VH with C110H
VL: B1 VL
notes: Position counted within VH CDR3; also called M3-11 H
B5: M3-11 (X = L) heavy chain with K1 light chain (antibody, V domains shown)
VH: B1 VH with C110L
VL: B1 VL
notes: the position is counted within CDR3, not on the entry; also called M3-11 L
B6: M3-11 (X = S) heavy chain with K1 light chain (antibody, V domains shown)
VH: B1 VH with C110S
VL: B1 VL
notes: Position counted within VH CDR3; also called M3-11 S
B7: M3-11 (X = D) heavy chain with K1 light chain (antibody, V domains shown)
VH: B1 VH with C110D
VL: B1 VL
notes: Position counted within VH CDR3; also called M3-11 D
B8: M3-11 (X = G) heavy chain with K1 light chain (antibody, V domains shown)
VH: B1 VH with C110G
VL: B1 VL
notes: Position counted within VH CDR3; also called M3-11 G
B9: M3-11 (X = F) heavy chain with K1 light chain (antibody, V domains shown)
VH: B1 VH with C110F
VL: B1 VL
notes: Position counted within VH CDR3; also called M3-11 F
B10: M3-11 (X = R) heavy chain with K1 light chain (antibody, V domains shown)
VH: B1 VH with C110R
VL: B1 VL
notes: Position counted within VH CDR3; also called M3-11 R
B11: M3-11 (X = A) heavy chain with K1 light chain (antibody, V domains shown)
VH: B1 VH with C110A
VL: B1 VL
notes: Position counted within VH CDR3; also called M3-11 A
B12: M3-11 (X = K) heavy chain with K1 light chain (antibody, V domains shown)
VH: B1 VH with C110K
VL: B1 VL
notes: Position counted within VH CDR3; also called M3-11 K
B13: M3-11 (X = I) heavy chain with K1 light chain (antibody, V domains shown)
VH: B1 VH with C110I
VL: B1 VL
notes: Position counted within VH CDR3; also called M3-11 I
B14: M3-4 (X = L) heavy chain with K1 light chain (antibody, V domains shown)
VH: B1 VH with P103L, C110Y
VL: B1 VL
notes: the position is counted within CDR3, not on the entry; also called M3-4 L
B15: M3-4 (X = M) heavy chain with K1 light chain (antibody, V domains shown)
VH: B1 VH with P103M, C110Y
VL: B1 VL
notes: Position counted within VH CDR3; also called M3-4 M
B16: M3-4 (X = S) heavy chain with K1 light chain (antibody, V domains shown)
VH: B1 VH with P103S, C110Y
VL: B1 VL
notes: Position counted within VH CDR3; also called M3-4 S
B17: M3-4 (X = H) heavy chain with K1 light chain (antibody, V domains shown)
VH: B1 VH with P103H, C110Y
VL: B1 VL
notes: Position counted within VH CDR3; also called M3-4 H
B18: M3-4 (X = N) heavy chain with K1 light chain (antibody, V domains shown)
VH: B1 VH with P103N, C110Y
VL: B1 VL
notes: Position counted within VH CDR3; also called M3-4 N
B19: M3-4 (X = K) heavy chain with K1 light chain (antibody, V domains shown)
VH: B1 VH with P103K, C110Y
VL: B1 VL
notes: Position counted within VH CDR3; also called M3-4 K
B20: M3-4 (X = G) heavy chain with K1 light chain (antibody, V domains shown)
VH: B1 VH with P103G, C110Y
VL: B1 VL
notes: Position counted within VH CDR3; also called M3-4 G
B21: M3-4 (X = I) heavy chain with K1 light chain (antibody, V domains shown)
VH: B1 VH with P103I, C110Y
VL: B1 VL
notes: Position counted within VH CDR3; also called M3-4 I
B22: M3-4 (X = T) heavy chain with K1 light chain (antibody, V domains shown)
VH: B1 VH with P103T, C110Y
VL: B1 VL
notes: Position counted within VH CDR3; also called M3-4 T
B23: M3-4 (X = E) heavy chain with K1 light chain (antibody, V domains shown)
VH: B1 VH with P103E, C110Y
VL: B1 VL
notes: Position counted within VH CDR3; also called M3-4 E
B24: M3-4 (X = C) heavy chain with K1 light chain (antibody, V domains shown)
VH: B1 VH with P103C, C110Y
VL: B1 VL
notes: Position counted within VH CDR3; also called M3-4 C
B25: M3-4 (X = A) heavy chain with K1 light chain (antibody, V domains shown)
VH: B1 VH with P103A, C110Y
VL: B1 VL
notes: Position counted within VH CDR3; also called M3-4 A
B26: M3-4 (X = W) heavy chain with K1 light chain (antibody, V domains shown)
VH: B1 VH with P103W, C110Y
VL: B1 VL
notes: Position counted within VH CDR3; also called M3-4 W
B27: M3-4 (X = V) heavy chain with K1 light chain (antibody, V domains shown)
VH: B1 VH with P103V, C110Y
VL: B1 VL
notes: Position counted within VH CDR3; also called M3-4 V
B28: M3-4 (X = D) heavy chain with K1 light chain (antibody, V domains shown)
VH: B1 VH with P103D, C110Y
VL: B1 VL
notes: Position counted within VH CDR3; also called M3-4 D
B29: M3-4 (X = R) heavy chain with K1 light chain (antibody, V domains shown)
VH: B1 VH with P103R, C110Y
VL: B1 VL
notes: Position counted within VH CDR3; also called M3-4 R
B30: M3 heavy chain with K1-CD light chain (antibody, human IgG4, V domains shown)
VH: B1 VH with C110Y
VL: DIQMTQSPSSLSASVGDRVTITCSASTSINSNHLNWYQQKPGKAPKLLIYRTSILASGVPSRFSGSGSGTSFTLTISSLQPEDFATYYCQQGSNIPFTFGQGTKVEIKR
notes: also called M3 K1-C/D
B31: M3-AB heavy chain with K1-CD light chain (antibody, human IgG4, V domains shown)
VH: B1 VH with M34A, S67A, C110Y
VL: B30 VL
notes: also called M3-A/B K1-C/D
B32: M3 heavy chain with K1-E light chain (antibody, human IgG4, V domains shown)
VH: B1 VH with C110Y
VL: B30 VL with T27S, N35H, G92T
notes: also called M3 K1-E
B33: M3 heavy chain with K1-D light chain (antibody, human IgG4, V domains shown)
VH: B1 VH with C110Y
VL: B30 VL with T27S
notes: also called M3 K1-D
B34: M3 heavy chain with K1-DE light chain (antibody, human IgG4, V domains shown)
VH: B1 VH with C110Y
VL: B30 VL with T27S, G92T
notes: also called M3 K1-D/E
B35: M3-A heavy chain with K1 light chain (antibody, human IgG4, V domains shown)
VH: B1 VH with M34A, C110Y
VL: B30 VL with T27S, N35H
notes: also called M3-A K1
B36: M3-AB heavy chain with K1 light chain (antibody, human IgG4, V domains shown)
VH: B1 VH with M34A, S67A, C110Y
VL: B30 VL with T27S, N35H
notes: also called M3-A/B K1
B37: M3 heavy chain with K1-CDE light chain (antibody, human IgG4, V domains shown)
VH: B1 VH with C110Y
VL: B30 VL with G92T
notes: also called M3 K1-C/D/E

Target: T1, purified recombinant IFNAR-1 extracellular fragment (human, UniProt P17181 28-436)
T1 construct: extracellular domain; also called soluble IFNAR-1; soluble IFNAR
T1 sequence (looked up): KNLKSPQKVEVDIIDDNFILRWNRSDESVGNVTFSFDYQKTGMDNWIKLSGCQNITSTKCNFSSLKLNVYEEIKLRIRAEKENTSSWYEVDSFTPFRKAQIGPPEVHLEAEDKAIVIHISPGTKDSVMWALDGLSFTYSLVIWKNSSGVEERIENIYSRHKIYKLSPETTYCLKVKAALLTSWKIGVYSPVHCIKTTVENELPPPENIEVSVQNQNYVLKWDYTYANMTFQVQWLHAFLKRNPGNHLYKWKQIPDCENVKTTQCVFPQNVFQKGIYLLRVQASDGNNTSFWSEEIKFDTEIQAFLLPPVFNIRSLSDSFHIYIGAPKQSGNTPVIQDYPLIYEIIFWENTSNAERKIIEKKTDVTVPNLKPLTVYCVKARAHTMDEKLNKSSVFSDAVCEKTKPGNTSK
Test: Biacore, maximal association on IFNAR-1 relative to M3K1
Description: (§1) Pools 4 and 11 were selected for further study and the individual antibodies in each pool were produced and expressed separately. The sequences of these individual antibodies were as shown in SEQ ID NO:12 of FIG. 1F and SEQ ID NO: 13 of FIG. 1G. The data is presented as maximal association relative to M3K1. […]

Binder	% activity relative to M3K1
B1	64%
B2	105%
B3	73%
B4	104%
B5	75%
B6	39%
B7	67%
B8	63%
B9	93%
B10	220%
B11	93%
B12	82%
B13	81%

Target: T1, purified recombinant IFNAR-1 …
Test: as above
Remark: another data set of the same source
Description: as §1

Binder	% activity relative to M3K1
B14	126%
B15	101%
B16	110%
B17	79%
B18	49%
B19	86%
B20	114%
B21	106%
B22	103%
B23	128%
B24	123%
B25	107%
B26	93%
B27	122%
B28	100%
B29	106%

Target: T1, purified recombinant IFNAR-1 …
Test: Biacore, response on IFNAR-1 (flow cell 2) divided by response on anti-human IgG Fc (flow cell 4)
Description: A series of antibodies were constructed with reduced numbers of potential T-cell epitopes. These included heavy chain variants M3-A and M3-B in which residues were changed in CDR regions and DI M3 in which framework residues were altered. De-immunized light chains were also constructed termed K1-C, K1-D, K1-E and DI K1. The antibodies were expressed and purified before analysis by Biacore. A Biacore chip was used with IFNAR-1 coated on Flow cell 2 at 690 RU and anti-human IgG Fc on flow cell 4 at 5000 RU. Binding of the antibody to IFNAR-1 relative to anti-human IgG Fc was determined by the ratio of response at flow cell 2 divided by flow cell 4 (Fc2/Fc4).

Binder	% activity relative to H3K1	Fc2/Fc4
B30	57%	0.17
B31	23%	0.07
B32	–	-0.05
B33	30%	0.09
B34	–	-0.1
B35	17%	0.05
B36	43%	0.13
B37	–	-0.1

From patent publication US20050208041A1 (Bristol-Myers Squibb, published 2005)
